Measured values as given in the supplement of paper PMC9170038.

System: MS2 coat protein
Assay: apparent KD of MS2 coat protein; higher = weaker reporter binding
Conditions: Eterna round: R107
Outline: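 Apparent KD stands for the median, per design, of fits to normalised cluster binding curves. The curves came from titrating on-chip-transcribed RNA switches on Illumina sequencing clusters with SNAP-549-labelled MS2 coat protein, twofold from 0.7 or 1.5 nM to 3 µM. Buffer was 100 mM Tris-HCl pH 7.5, 80 mM KCl, 4 mM MgCl2, without or with constant ligand.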

[1] = input ligand: theophylline 20 uM
[2] = input ligand: tryptophan 2.4 mM
[3] = input ligand: theophylline 2 mM

Sequence	apparent KD of MS2 coat protein (input ligand: arginine 13.2 mM)	apparent KD of MS2 coat protein [1]	apparent KD of MS2 coat protein [2]	apparent KD of MS2 coat protein [3]	apparent KD of MS2 coat protein (input ligand: none)
AGUGUUAUAACUGAUACCAGACUUGCGCUUAAACAUGAGGAUCACCCAUGUAAAAUGGUUGUCCCUUGGCAGCAGAAAAUACACA [JR_SSTheophyB_Sub006]	53.2 nM	98 nM	98.4 nM	–	–
AUAACAUGAGGAUCACCCAUGUAAGCAGAUACCAGCUAGGAAACUAGCCCUUGGCAGCUGCAAGGUGAUCCUAAUGCAGCUGCAA [(M1)-(M2)-(T1)-(T2)-(M)'-(T)'_Design3]	61.9 nM	241 nM	158 nM	–	–
AUAACAUGAGGAUCACCCAUGUAAGCAGAUACCAGCUAGGAAACUAGCCCUUGGCAGCUGCAUUCCUCAUGUAGGUAUCUGCUAA [(M1)-(M2)-(T1)-(T2)-(M)'-(T)'_Design4]	18.4 nM	22.1 nM	16.1 nM	–	–
AUAACAUGAGGAUCACCCAUGUAGAGUGAUACCAGACUACGUAAUGUCCCUUGGCAGCACAAGUAAAGUUACGAAUAAUGAUAGA [JR_SSTheophyA_Sub002]	113 nM	146 nM	137 nM	–	–
AUAACAUGAGGAUCACCCAUGUAUUGGUUACGAGGACCGGUACGGCCGCCACUCGUAUUUUGGUGGUAUUUUGUAUAUAUGAUAA [JR_SSTryptoA_Sub018]	26.6 nM	32.3 nM	–	36.5 nM	–
AUAAUAAAGACGGCCGCCACUAUAAACAUGAGGAACAUGAGGAUCACCCAUGUAUGAGGAUCACCUAGGACCGGGUCAAAUAUUA [AstrosExyTryB#3]	36 nM	70.1 nM	44.7 nM	45.9 nM	49.4 nM
AUAAUAAUACAUGAGGAUCACCCAUGUAUGCGAGGACCGGUACGGCCGCCACUCGACCUCAUGCAUACAUGAGGAUCACCCAUGU [Same State Tryptophan A 4]	18.4 nM	55.8 nM	–	67.2 nM	–
AUACACCUCGUCCAGGCAAUCUUUAGUGAUACCAGCUAACUCCGUGGCCCUUGGCAGCACAUGAGGAUCACCCAUGUGCGACAUC [Bioninen]	10.2 nM	13.4 nM	11.6 nM	–	–
AUACAUGAGGAUCACCCAUGUCAUACAGAAGGAGCGUCACAUAAGACAGGUAGGUCGCUGAUAUAUACGUCACGAAUAGUGACGA [JR_SSArginiA_Sub017]	16.8 nM	23.5 nM	18.6 nM	20.4 nM	18.6 nM
AUACGGCGGUAAAAUCAGAGAGUAAAAGAUACCAGCAAUAAUAAAUGCCCUUGGCAGCUUCUGACAUGAGGAUCACCCAUGUAAA [theeternabot_exclusion_MS2_Theo_A_49]	15.7 nM	18 nM	15 nM	–	–
AUCGUACCUGAUGAUACCAGCAAUUGCUCGUAACAUGAGGAUCACCCAUGUGACCAGUGAUGCCCUUGGCAGCAUGAUCGGUGCA [Same State - Theophylline B (Freestyle 20)]	45.7 nM	48.9 nM	45.8 nM	–	–
AUCGUACCUGAUGAUACCAGCAAUUGCUCGUAACAUGAGGAUCACCCAUGUGACCAGUGAUGCCCUUGGCAGCAUGGUCGGUGCA [Same State - Theophylline B (Freestyle 21)]	59.5 nM	190 nM	150 nM	–	–
AUCUCAUAGAGUGAUACCAGACUACAUGAGGAUCACCCAUGUUACAUUUAAAUAUCAUUUGUCCCUUGGCAGCACAUGAAGUACA [JR_Nu_ExcTheophyB_Sub018]	22.9 nM	37.3 nM	27.6 nM	–	–
AUGCAUAUCAGAAGGAGCGUCUUUAACAUGAGGAUCACCCAUGUAACAUUGAAUUCGAUGAGACAGGUAGGUCGCUGAAUAGUAA [SS-ArgB24]	27.5 nM	39.3 nM	31.2 nM	32.8 nM	33.7 nM
AUGGUAAGAACAUGAGGAUCACCCAUGUGACGAGGACCGGUACGGCCGCCACUCGUACCUUAGUCGUCGAACAGAGGAUUCAUGU [Trypt A-MS2@10]	37.1 nM	138 nM	–	125 nM	–
AUGUAAGUGGUGUCACUGUGGUCUAGUGAUACCAGUAUCGAAAGAUACCCUUGGCAGCGCUAGAACAUGAGGAUCACCCAUGUUU [#24 Exclusion-TheophyllineA]	34.8 nM	74.8 nM	58.3 nM	–	–
AUGUACAUGACGGCCGCCACUACACUGAAAGUGGUCCAGAACAUGAGGAUCACCCAUGUAUCAAGUAGGACCGGGUCAUGUACAU [Tryp B Ex t5]	178 nM	425 nM	–	697 nM	–
